We go through 2 molecules from patent US6773917 (CURATORS OF THE UNIVERSITY OF MISSOURI, dated 2004).

Assay [1] addresses T1, in vitro imported Arabidopsis thaliana plastid PDC E1α subunit (Arabidopsis thaliana, UniProt O24457 69-428).
T1 construct: Translated in vitro and imported into chloroplasts
T1 sequence: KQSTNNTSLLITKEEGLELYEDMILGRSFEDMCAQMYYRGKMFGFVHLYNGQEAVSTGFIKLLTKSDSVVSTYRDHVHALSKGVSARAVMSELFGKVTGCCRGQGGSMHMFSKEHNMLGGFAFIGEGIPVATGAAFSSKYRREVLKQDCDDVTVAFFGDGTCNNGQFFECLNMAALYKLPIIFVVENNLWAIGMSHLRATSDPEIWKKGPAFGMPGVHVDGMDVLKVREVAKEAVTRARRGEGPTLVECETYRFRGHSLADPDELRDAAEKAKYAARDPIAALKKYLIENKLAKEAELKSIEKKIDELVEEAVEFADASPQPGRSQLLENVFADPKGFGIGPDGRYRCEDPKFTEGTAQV
The experiment in a line: in vitro import into chloroplasts and assembly.

Assay [2] has as its target T2, plastid pyruvate dehydrogenase heterotetramer (imported plastid PDC E1α and E1β subunits) (Arabidopsis thaliana, UniProt O24457 69-428; Q9C6Z3 74-406).
T2 construct: also called this heterotetramer
T2 sequence 1: T1 sequence
T2 sequence 2: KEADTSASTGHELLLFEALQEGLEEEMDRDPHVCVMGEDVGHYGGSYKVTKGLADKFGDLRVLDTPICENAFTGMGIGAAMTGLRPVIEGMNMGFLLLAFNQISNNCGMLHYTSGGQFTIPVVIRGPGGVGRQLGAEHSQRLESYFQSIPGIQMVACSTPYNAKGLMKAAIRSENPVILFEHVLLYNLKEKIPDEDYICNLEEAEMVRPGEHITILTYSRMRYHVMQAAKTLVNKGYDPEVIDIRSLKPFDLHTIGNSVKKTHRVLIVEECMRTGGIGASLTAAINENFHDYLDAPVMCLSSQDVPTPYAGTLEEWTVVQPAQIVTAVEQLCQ
The assay is described as follows: in vitro import into chloroplasts and assembly.

B1: in vitro imported Arabidopsis thaliana plastid PDC E1β subunit (enzyme)
chain: T2 sequence 2
notes: Translated in vitro and imported into chloroplasts
As to B1, the binding result in assay [1] is recorded as “binds”.

B2: in vitro imported Arabidopsis thaliana plastid PDC E2 subunit (enzyme)
chain: IREIFMPALSSTMTEGKIVSWIKTEGEKLAKGESVVVVESDKADMDVETFYDGYLAAIVVGEGETAPVGAAIGLLAETEAEIEEAKSKAASKSSSSVAEAVVPSPPPVTSSPAPAIAQPAPVTAVSDGPRKTVATPYAKKLAKQHKVDIESVAGTGPFGRITASDVETAAGIAPSKSSIAPPPPPPPPVTAKATTTNLPPLLPDSSIVPFTAMQSAVSKNMIESLSVPTFRVGYPVNTDALDALYEKVKPKGVTMTALLAKAAGMALAQHPVVNASCKDGKSFSYNSSINIAVAVAINGGLITPVLQDADKLDLYLLSQKWKELVGKARSKQLQPHEYNSGTFTLSNLGMFGVDRFDAILPPGQGAIMAVGASKPTVVADKDGFFSVKNTMLVNVTADHRIVYGADLAAFLQTFAKIIENPDSLTL
notes: Translated in vitro and imported into chloroplasts; also called imported PDC E2 subunits
For B2, the binding result in assay [2] is “binds”.
